Experimental data as given in publication PMC6269517.

Target: Cy5-S15(T79C), 30S ribosomal protein S15 (Escherichia coli, UniProt P0ADZ4 1-89, T79C)
Experiment: single-molecule FRET (ZMW); pre-folded; >80% of molecules bind stably; read-out is H20-H22 closure, S15 label in this assay not stated; 50 mM Tris pH 7.5, 14 mM MgCl2, 20 mM NaCl, 150 mM KCl, 0.04 mM EDTA, 40 ug/ml BSA, 0.01% Triton X-100, 2 mM spermidine, 1 mM putrescine; 20 C unless stated; 0.

B1: 85 nt minimal 3-way junction (p0099A/B/C) (structured_RNA)
RNA 1: GGCGCACGCAGGCGGUUUGCCG
RNA 2: CGGCAAGCUUGAGUCUCGUAGAGGGGGGU
RNA 3: GCCCCCUGGACGAAGACUGACGCUCAGGUGCGCC
binding result: binds
